# Assay results published in article PMC7666158.
# B1: Sbit-ATF2(19–100), ATF2 TAD wild type (NanoBiT probe) [human] / Lbit-JNK1 (NanoBiT probe) [human] (parent)
# chain 1: MSDDKPFLCTAPGCGQRFTNEDHLAVHKHKHEMTLKFGPARNDSVIVADQTPTPTRFLKNCEEVGLFNELASPFENEFKKAS
# chain 2: MSRSKRDNNFYSVEIGDSTFTVLKRYQNLKPIGSGAQGIVCAAYDAILERNVAIKKLSRPFQNQTHAKRAYRELVLMKCVNHKNIIGLLNVFTPQKSLEEFQDVYIVMELMDANLCQVIQMELDHERMSYLLYQMLCGIKHLHSAGIIHRDLKPSNIVVKSDCTLKILDFGLARTAGTSFMMTPYVVTRYYRAPEVILGMGYKENVDLWSVGCIMGEMVCHKILFPGRDYIDQWNKVIEQLGTPCPEFMKKLQPTVRTYVENRPKYAGYSFEKLFPDVLFPADSEHNKLKASQARDLLSKMLVIDASKRISVDEALQHPYINVWYDPSEAEAPPPKIPDKQLDEREHTIEEWKELIYKEVMDLEERTKNGVIRGQPSPLGAAVINGSQHPSSSSSVNDVSSMSTDPTLASDTDSSLEAAAGPLGCCR
# Variants of: B1
# Test: NanoBit luciferase complementation in HEK293T cells
# Conditions: with Lbit-JNK1 (NanoBiT probe) [human]; anisomycin (30 min); normalized to control (−) = 1.0; read off a plot; scale: relative luminescence intensity
row,response,Variant
1,1,chain 1 K30E
